# From patent US20230039401A1, “COMPOSITIONS AND METHODS FOR TREATING NRP2-ASSOCIATED DISEASES” (aTyr Pharma, Inc., priority 2018, published 2023)
# Columns and labels:
# [1] = system: LPS-induced leukocyte infiltration into the mouse lung; test: Murine model of LPS-induced pulmonary inflammation; format: in vivo; settings: single IV 3 mg/kg the day before LPS 10 μg/mouse; lavage 24 hours later
# Description: This study was designed to investigate the in vivo potential of test compounds in a murine model of neutrophil accumulation in the lung induced by airway instillation of lipopolysaccharide (LPS).
# Treatment Regimen. Sixty-four (64) C57BL/6 mice (Jackson Laboratory, Bar Harbor, Me., USA, 8 week old females) were assigned to study groups of 8 mice, and housed in specific pathogen-free conditions with sterile food and water.
# In brief, animals received a single intravenous injection of the vehicle of Fc-HRS(2-60) (20 mM Histidine/125 mM NaCl/10 mM Methionine/3% Sucrose/0.02% PS20, pH 6.9), Fc-HRS(2-60) (1, 3, or 10 mg/kg), or HRS(2-60)-COMP (3 mg/kg). The following day, mice were anesthetized by isoflurane inhalation and, using a gavage needle and attached syringe, 50 μL of LPS (Sigma L3024, E. coli 0111-B4, 10 μg/mouse) formulated in PBS, or PBS alone, was delivered to the back of the oral soft palate for inhalation. […]
# Flow Cytometry Analysis. […] NRP2 was detected by addition of 25 μL of rabbit anti-mouse NRP2 (Cell Signaling Technology) at 10 μg/mL in FWB for 1 h in the dark on ice, and cells were then washed (data not shown). […]
# Using GraphPad Prism 7, results were analyzed by one-way ANOVA followed by Dunn's multiple comparison test using the LPS/Vehicle group as the comparator. […]
# [2] = system: murine bone marrow derived macrophages; test: Efferocytosis in bone marrow derived macrophages (pHrodo-loaded apoptotic jurkat cells); format: cell-based, mouse; settings: 100 nM for 5 days during monocyte differentiation
# Description: This study was designed to investigate the in vivo potential of test compounds to modulate efferocytosis in murine bone marrow derived macrophages. Efferocytosis refers to the process by which dying/dead cells (e.g. apoptotic or necrotic cells) are removed by phagocytic cells. During efferocytosis, the cell membrane of phagocytic cells engulfs the apoptotic cell, forming a large fluid-filled vesicle containing the dead cell. Efferocytosis can be performed not only by ‘professional’ phagocytic cells such as macrophages or dendritic cells, but also by many other cell types including epithelial cells, fibroblasts and other cells. To distinguish them from living cells, apoptotic cells carry specific ‘eat me’ signals, such as the presence of phosphatidyl serine (resulting from phospholipid flip-flop) or calreticulin on the outer leaflet of the cell membrane. […] Like phagocytosis, acidification of the endosome, is a central aspect of endosome maturation, which can be readily monitored through the use of a pH sensitive probe, as described herein.
# Methods and protocol. […] Confocal images were captured in Zeiss 710 Confocal Laser Scanning Microscope equipped with 4 lasers and images were captured and analyzed using Zeiss Zen 2010 software. For quantification, the intensity of red fluorescence in each field were measured and the arithmetic mean was calculated and represented graphically.
molecule,measurement,setting,value
"HRS(2-60)-COMP: pentamer of HRS(2-60): HARS aa 2-60 fused to COMP pentameric domain (aa 28-73); made His tagged; SEQ ID NO:175 without tags (protein, His tag; Made in Lab - HRS-COMP Fusion Protein) ERAALEELVKLQGERVRGLKQQKASAELIEEEVAKLLKLKAQLGPDESKQKFVLKTPKGGGGSGGGGSSDLGPQMLRELQETNAALQDVRELLRQQVREITFLKNTVMECDAC",number of airway neutrophils accumulating in response to LPS,[1],significantly reduced
same,efferocytosis (spectral shift of pH sensitive dye),[2],profound inhibition of efferocytosis
